Where a SMILES comes first, the peptide text is derived from it. [ ]: non-standard residue; d: D form. The star is where a group is joined. Dolaproine = CO[C@@H]([C@@H]1CCCN1)[C@@H](C)C(=O)O; Dil = CC[C@H](C)[C@H](NC)[C@@H](CC(=O)O)OC; X1 = C[C@@H](N*)[C@@H](O)c1ccccc1; NMeV = CN[C@H](C(=O)O)C(C)C
Columns and labels:
[1] = system: H460 human non-small cell lung carcinoma xenograft; assay: M830 alone and with gemcitabine, cisplatin or radiation in H460 human non-small cell lung carcinoma xenograft model; format: in vivo, nude mice; settings: 58-day study, survival (TTE), logrank
Description: (§1) The statistical tests were not adjusted for multiple comparisons.
Treatment began on Day 1 in eight groups of nude mice (n=10) with established subcutaneous H460 tumors of 75-126 mm^3. […] The study endpoint was a tumor volume of 2000 mm^3 or the final day, Day 58, whichever came first. […] The median TTE for controls was 15.6 days, establishing a maximum possible TGD of 42.4 days (272%) for the 58-day study.

[2] = system: OVCAR3 ovarian cancer model; assay: M825 and M825-MMAE in OVCAR3 ovarian cancer model; format: in vivo, mice; settings: free MMAE at 0.2 mg/kg, equivalent to maximum MMAE in the 10 mg/kg ADC group
Procedure: Treatment initiated when tumor volume reached approximately 120 mm^3. M825 was given i.v. at 10 mg/kg and M825-MMAE was given i.v. at 1, 3, or 10 mg/kg, 2 times per week for 3.5 weeks. […] The 10 mg/kg ADC group was redosed on Day 56, 2 times per week.

[3] = Pharmacokinetics of TEM8 antibodies in mouse, multiple dose; format: in vivo
Description: (§2) Tables 8 and 9 show pharmacokinetic properties of TEM8 antibodies according to the present invention in mouse for single dose (Table 8) and multiple dose (Table 9) treatments.

[4] = Pharmacokinetics of TEM8 antibodies in mouse, single dose; format: in vivo
Description: as §2

hTEM8-AP = assay: Biocore affinity measurements of anti-TEM8 Fabs, hTEM8-AP; format: binding, human; settings: Fab
Sequence of hTEM8-AP (Q9H6X2 33-321): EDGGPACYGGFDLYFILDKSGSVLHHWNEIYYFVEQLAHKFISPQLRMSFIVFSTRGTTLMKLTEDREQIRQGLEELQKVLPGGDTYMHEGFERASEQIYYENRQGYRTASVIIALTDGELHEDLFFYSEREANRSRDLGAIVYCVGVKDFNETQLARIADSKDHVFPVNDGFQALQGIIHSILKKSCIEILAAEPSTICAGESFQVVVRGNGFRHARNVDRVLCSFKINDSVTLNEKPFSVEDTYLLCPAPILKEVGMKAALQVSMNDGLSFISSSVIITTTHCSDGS

3T3 fibroblasts = assay: Contractility of 3T3 fibroblasts in the presence of TGFb-1; format: cell-based
Procedure: 3T3 cells were cultured and contractility in the presence of TGFb-1 was measured in control or M825 exposed cells. […] Contractile forces are thought to contribute to increased cancer cell invasion.

UACC melanoma cells = assay: TEM8 antibody efficacy in UACC melanoma model; format: in vivo, mice; settings: 15 mg/kg, 3 times per week for 3-4 weeks; treatment initiated at 50 mm^3
Procedure: UACC melanoma cells were cultured and injected subcutaneously into mice. Treatment was initiated with a tumor volume of 50 mm^3, and treatment groups consisted of one of four TEM8 antibodies (M825, M830, M863, and M822), each dosed at 15 mg/kg, 3 times per week for 3-4 weeks.

[5] = system: H460 non-small cell lung carcinoma xenograft; assay: M830 alone and with bevacizumab or paclitaxel in the H460 non-small cell lung carcinoma xenograft model; format: in vivo, athymic nude mice; settings: combination partner Paclitaxel
Procedure: Animals were monitored for regression responses.
as §1
Cultured H460 cells were harvested during exponential growth and resuspended in phosphate buffered saline at a concentration of 1×10^8 cells/mL. 1.0×10^7 tumor cells were injected subcutaneously into the flank of athymic nude mice. Animals were euthanized when tumors reached the pre-determined volume endpoint of 2000 mm^3 or on the final day (Day 88), whichever came first. […] Each treatment produced a significant survival difference versus controls (P<0.01). The median TTE for controls was 22.8 days, establishing a maximum possible TGD of 65.2 days (286%) for the 88-day study.

FcγRIIIa (CD16a) = FcγRIIIa (CD16a) (Homo sapiens, UniProt P08637); assay: Binding of M830 Fc mutant to FcγRIIIa (ADCC); settings: Fc mutant form compared with M830
Sequence of FcγRIIIa (CD16a) (P08637 17-254): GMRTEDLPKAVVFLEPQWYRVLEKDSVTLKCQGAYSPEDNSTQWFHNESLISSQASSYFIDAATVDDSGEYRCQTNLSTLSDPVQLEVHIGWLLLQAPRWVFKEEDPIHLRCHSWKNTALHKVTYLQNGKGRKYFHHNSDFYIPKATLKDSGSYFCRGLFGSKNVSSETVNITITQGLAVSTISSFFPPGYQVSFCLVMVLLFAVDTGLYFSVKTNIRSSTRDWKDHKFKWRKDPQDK
Description: Fc mutations which increase ADCC are known in the art. For example, substitutions in the IgG constant region such as S239D, A330L, and I332E are known to increase binding to the FCy receptor. (see, e.g., Lazar et al., Proc. Natl., Acad. Sci. U.S.A., 103:4005-4010, 2006). In the present example, the M830 Fc S239D:I332E double mutant was generated and confirmed by standard molecular biology techniques (830M: S239D/I332E).

Molecule | outcome compared to vehicle-treated controls [1] | AUCI ([3]; 5 mg/kg) [µg·h/mL] | AUCT ([3]; 5 mg/kg) [µg·h/mL] | AUCI ([3]; 15 mg/kg) [µg·h/mL] | AUCT ([3]; 15 mg/kg) [µg·h/mL] | AUCI ([4]; 5 mg/kg) [µg·h/mL] | AUCT ([4]; 5 mg/kg) [µg·h/mL] | AUCT ([4]; 15 mg/kg) [µg·h/mL] | also measured
N.N.[Cl][Pt][Cl] [Cisplatin, cisplatin] | statistically significant survival benefit | – | – | – | – | – | – | – | –
CC[C@H](C)[C@@H]([C@@H](CC(=O)N1CCC[C@H]1[C@H](OC)[C@@H](C)C(=O)N[C@H](C)[C@@H](O)c1ccccc1)OC)N(C)C(=O)[C@@H](NC(=O)[C@@H](NC)C(C)C)C(C)C [MMAE, reference compound] (H-[NMeV]V[Dil][Dolaproine]-X1) | – | – | – | – | – | – | – | – | effect in OVCAR3 model [2]: No effect
Nc1ccn([C@@H]2O[C@H](CO)[C@@H](O)C2(F)F)c(=O)n1 [gemcitabine] | not statistically different from vehicle-treated controls | – | – | – | – | – | – | – | –
M825: TEM8 monoclonal antibody (hIgG1); VH SEQ ID NO:1, VL SEQ ID NO:2 [Antibody M825] | – | 1408.345 | 1408.201 | 21649.446 | 21648.879 | 1310.519 | 1310.222 | 8991.767 | AUCI ([4]; 15 mg/kg): 9239.202 µg·h/mL; Kd (hTEM8-AP): 0.0591 nM; contractility of activated 3T3 fibroblasts in vitro (3T3 fibroblasts): block the contractility
M830: TEM8 monoclonal antibody (hIgG1); VH SEQ ID NO:5, VL SEQ ID NO:6 (antibody, V domains shown, TEM830 mAb VH; TEM830 mAb VL) VH: EVQLVESGGGVVQPGRSVRLSCAASGFTFSTYTMHWVRQAPGKGLEWVAIISNDGSNKYYADPVRGRFTISRDNSKNTLYLQMNSLRAEDTAVYYCVRGSSWYRGNWFDPWGQGTLVTVSS VL: DIQMTQSPSSLSASVGDRVTIACRASQTISRYLNWYQQKPGKAPKLLIYAASSLQSGVSSRFSGSGSGTEFTLTISSLQPEDFATYFCQQTYSPPITFGQGTRLEIKR | not statistically different from vehicle-treated controls | 4316.79 | 4315.918 | 23053.875 | 23052.853 | 2242.485 | 2242.286 | 10692.598 | tumor growth in the UACC melanoma model (UACC melanoma cells): effective at slowing tumor growth; AUCI ([4]; 15 mg/kg): 10692.742 µg·h/mL; Kd (hTEM8-AP): 1.57 nM; regression (with % Tumor Reduction vs. Vehicle at Day 21) [5]: −61%
M863: TEM8 monoclonal antibody (hIgG1); VH SEQ ID NO:7, VL SEQ ID NO:8 (antibody, V domains shown, TEM863 mAb VH; TEM863 mAb VL) VH: EVQLVETGAEVKKPGASVKVSCKASGYTFTGYYMHWVRQAPGQGLEWMGWINPTSGSTNYAQKFQGRVTMTRDTSISTAYMELSGLRSDDTAVYYCVRDPGSPKWLAFDPWGQGTLVTVSS VL: DIQLTQSPSSLSASVGDRVTITCRASRAISRYLNWYQQKPGKAPKLLIYAASSLQSGVSSRFSGSGSGTEFTLTISSLQPEDFATYFCQQTYSPPITFGQGTRLEIKR | – | 1425.735 | 1425.565 | 7272.672 | 7271.7 | 1330.847 | 1330.742 | 10721.535 | –
M830 Fc S239D:I332E double mutant: M830 with Fc substitutions S239D and I332E made to increase ADCC (antibody, left off: a dimerising Fc or GST, M830 with Fc substitutions S239D and I332E made to increase ADCC) heavy: EVQLVESGGGVVQPGRSVRLSCAASGFTFSTYTMHWVRQAPGKGLEWVAIISNDGSNKYYADPVRGRFTISRDNSKNTLYLQMNSLRAEDTAVYYCVRGSSWYRGNWFDPWGQGTLVTVSS VL: DIQMTQSPSSLSASVGDRVTIACRASQTISRYLNWYQQKPGKAPKLLIYAASSLQSGVSSRFSGSGSGTEFTLTISSLQPEDFATYFCQQTYSPPITFGQGTRLEIKR | – | – | – | – | – | – | – | – | binding to FcγRIIIa (CD16a) (FcγRIIIa (CD16a)): significantly enhanced binding

— patent US10758613B2, “Combination therapies using anti-metabolites and agents that target tumor-associated stroma or tumor cells” (BIOMED VALLEY DISCOVERIES, INC., priority 2014, dated 2020)
